Earlier results in PMC3817581.

Key:
Details in all cases: not stated in this article
Asp27 = Asp27 (UniProt position 156, PLCGSDNKTYG)
Asp7 = Asp7 (UniProt position 136, AAVSVDCSEYP)
Glu10 = Glu10 (UniProt position 139, SVDCSEYPKPA)
Glu19 = Glu19 (UniProt position 148, PACTLEYRPLC)
Glu43 = Glu43 (UniProt position 172, CNAVVESNGTL)

In the case of “Turkey ovomucoid third domain (OMTKY3) (Meleagris gallopavo)”, the pKa (Asp27) is given as 2.2, the pKa (Asp7) is given as 2.5 and the pKa (Glu10) is given as 4.1. For the same substance, the pKa (Glu19) was 3.2 and the pKa (Glu43) was 4.8.
